Data taken from PMC4683529, “Cancer associated missense mutations in BAP1 catalytic domain induce amyloidogenic aggregation: A new insight in enzymatic inactivation” (Scientific Reports, 2015).
Positions count from the first letter of the chain named. Names and notes keep the numbering of the source.

B1: BAP1 catalytic domain (1–240), wild type (domain or fragment, human, UniProt Q92560 1-240, looked up)
chain: MNKGWLELESDPGLFTLLVEDFGVKGVQVEEIYDLQSKCQGPVYGFIFLFKWIEERRSRRKVSTLVDDTSVIDDDIVNNMFFAHQLIPNSCATHALLSVLLNCSSVDLGPTLSRMKDFTKGFSPESKGYAIGNAPELAKAHNSHARPEPRHLPEKQNGLSAVRTMEAFHFVSYVPITGRLFELDGLKVYPIDHGPWGEDEEWTDKARRVIMERIGLATAGEPYHDIRFNLMAVVPDRRIK
notes: BRCA1 associated protein 1 (BAP1), human, N-terminal catalytic (UCH) domain, residues 1-240, subcloned into pGEX-6P-1 from Flag-HA-BAP1; also called WT 240; BAP1 (1–240); source: E. coli Rosetta 2, purified (standard GST purification protocol)
B2: BAP1 catalytic domain (1–240) F81V (domain or fragment, human, UniProt Q92560 1-240, looked up)
chain: B1 chain with F81V
notes: BAP1, human, catalytic domain residues 1-240 with the cancer-associated mutation F81V; source: E. coli Rosetta 2, purified (standard GST purification protocol)

Target: the molecule itself
Test: ultracentrifugation of heated protein and dot blot of the pellet with A11 and OC antibodies; 7 uM protein heated at 37 °C for 1 h, then 14 h at 25 °C; 1,00,000 x g for 60 min (2 h for OC)

Protein	binding result
B1	binds
B2	binds
